The DeepSol protein solubility set

assay: soluble on expression in E. coli; label from the status in PepcDB or PDB records

Soluble on expression in E. coli, not soluble:
MGSDKIHHHHHHMRKPKITVIGGGTGSPVILKSLREKDVEIAAIVTVADDGGSSGELRKNMQQLTPPGDLRNVLVAMSDMPKFYEKVFQYRFSEDAGAFAGHPLGNLIIAGLSEMQGSTYNAMQLLSKFFHTTGKIYPSSDHPLTLHAVFQDGTEVAGESHIVDHRGIIDNVYVTNALNDDTPLASRRVVQTILESDMIVLGPGSLFTSILPNIVIKEIGRALLETKAEIAYVCNIMTQRGETEHFTDSDHVEVLHRHLGRPFIDTVLVNIEKVPQEYMNSNRFDEYLVQVEHDFVGLCKQVSRVISSNFLRLENGGAFHDGDLIVDELMRIIQVKK
MGSDKIHHHHHHMRLLSQVNLNSLKIVESAARHGNFTRAGEEQFITASAVSQRVKSLEDQLRFKIFQRGGNAVSLTPEGETYVSRVREALERIVAASMEATGQSQEHVLKISVLPTFAARWLFPRLPEFQRRYPDIVMRVSTSYATHEFSTSDFDLEIRYGDGHFNGLPSDLLFREDLTPVCSRKLFHEVLGDKPVSKVEPDDLRHFTLLHSDTCTQNWQSWLGFAGASFVLSETKSIYFDSCMMSYEAANAGMGFAVANRAYMASDIRAEKLVAPFAVHHPNSAGWYFVSPHKCLAARKVLLFKQWVMAEAALTQRQLDSEIRDLATEAV
MGSDKIHHHHHHMRLSNGDVIVFAGDSITDREKSNNAPLGYGYVNLFYNLMLAKHPETKITVINSGISGNTVIDLIDRWDDDVLSYKPNWISILIGINDLHKFLGGLTTFNPENYYENLRRLLKYTRKVLNNVNFILMTPFYISRNKLEGGFRAKVLELLPQYIEKVRLLSNEFSATYIDLHDTFKKLVNIREPNVYAPEPVHPNFTGHMVIALKLLEALEI
MGSDKIHHHHHHMRNKIEKGVDLNLRQFIKSLGYIAGGTALLASTPWLSSCTPEKLKEIRNEKARIALIGTGSRGQYHIHNLKEIPHARIVAVCDNYAPNLQQAVELCPGAKAYTDYRKLLESADIDGVIISTPLNWHAPIVLDALAAGKHVFCEKAMARTLDECKAIYDAYQTTNQVLYFCMQRMYDEKYIKGMQMIHSGLIGDVVGMRCHWFRNADWRRPVPSPELEHQINWRLYKESSGGLMTELACHQLEVCNWAAKRMPVSIIGMGDIVYWKDGREVYDSVNVTYRYSDGTKIAYESLISNKFNGMEDQILGHKGTMEMAKGIYYLEEDHSTSGIRQLIGQVKDKVFAAIPTAGPSWRPETKMEYTPHFVIEGDINVNNGLSMIGADKDGSDIILSSFCQSCITGEKAQNVVEEAYCSTVLCLLGNQAMEEERHILFPDEYKIPYMKF
MGSDKIHHHHHHMRNLGNTNMKIKRVGFGGIPIQRITQDDTNLVINELEKQGINFIDSARGYTISEEAIGIAIEGKRDKFFLATKSMSRDYDSMKRDVEISLNNFKTDFIDLYQFHNVKEEEYDNLFKDKMAYSALLEAKEQGKIKHIGITSHNLNTIEKAIEDGKFDTIQFPYNIVEGQADEVFKKAHEKGIGIIVMKPLAGGALDNATLAIKYILSKDYIDVVIPGMESVEQVRQNVAVLENLVLDEKDNKEIEEIRNSLGKKFCRRCEYCMPCAVGINIPLSFLCEGYYTRYGLKEWAKEKYEVMDVKPTECIDCGLCESRCPYELPIREMLKTVVEKLG
MGSDKIHHHHHHMRNPIHKRLEKFESWKNITFMLCLCERMYPNFYLFCQMTEQMDKAKIYQNILNLVWEYLTVKNAKINFENQLEKLENIIPDVNNYEFFGVVPALDACEGLSELLHAIIAGETLEKAIKISQLSLQTVITLLETQQDKAFSEAELKQSEEIELELDVQWQIYRTLNAHEERDIRLILDLKNELRESRVSNIGIEIAQ
MGSDKIHHHHHHMRNTDTYSYLVRDGHDLVHDPVPGILGPRPIGWISTCDSSGRPRLQTYSFFGIFNYVPPIVGFASVGGTESVNNAELTGEFAYNLATRPLAGCVNQTIVPALTEMDEFERSGLTKIRSIAIAAPRVAESPVSLECRVTSIQQLNGLDSEALNTWLVLGEVVAVHINRELLCDGFYDTVAAQPILRGGGACDYFEVLQAGKFRMTHPR
MGSDKIHHHHHHMRRKIPSTAALICFEAAARNESFTKAAQELALTQGAVCRQIGGLEAFLNVELFRRSRRGVRLTEAGLSYSRQVAAQLDAVERDTLSVMRQQGANVIELAVVPTFGTQWLLPRLKDFQQRHPEVTVNLTNRTRPFLFADTTFDAAIYFGDADWSGTQSHQLMGENPVPVCSPALLNGQGMLEARHIAQLPLLQQSTRPYAWRQWFGSVGMNVERDMTGPRYELFSMLAQAAMHDMGIALIPPFLIQRELEEGRLVVANRHALSSDKAYYLMIPERKVESASLRAFRDWLVSQAQAYINSSGTNAAN
MGSDKIHHHHHHMRTICVFNNKGGVGKTTLLCNLAAYFSIKRGKKVLVVDADPQCNATAYMIKEKVLDKLYASSSSDSATINSLIASLKKSKGYGIPPVLRSDGFNVDIVPGDPKFSLAEDFLAKDWLDAIAGDERGLRTTFFFRNLISWARSDGYDLVFFDMGPSLGAINRTVLLSSDHFILPMSSDIFSLRGLQNIEVALKNWTKGIERGLVSFKEDQGTSFKVESGDALSELGVSFLGYVTQQYTAKTVDGKKQPVSAYEKIIKKIDPLVSKHLILPLNKGQKLNYKLGEIPYFQSLVPMAQTATVPIFALKKADGVVGAHFDKVRQFDSVISGIVDKIEANMNSKGN
MGSDKIHHHHHHMRTNKVVWSEGLFLRPQLFQQQERYLEYYAHKRAATITPFFWGFAQYEIDREALSYGKLVLRSGKGVLPDGTPFDIPGHAELPEPLTITPDHLGKLIYLAVPLRLDNSDETIFDEYDMSSLARFYAYEADLSDTNAIRQGPKPVQLSRLRLKLVSESEMTESWIGLPLAKVRAIQPDGSVLLHLEDYIPPVTGYAASSLLSEWLTHLNGLVKMRADMLAKRLSNSDGKASASAEIVDYLLLQIFNKYEPSLDHLRNIPELPPIVLYQELAKFAGELSTFIRTKTRRPRPAPGYDHGKLYPSIRPLVDDVHELLNQILVRAGQMIPLEPKGNGVWSASVLPNELRSFSNLVLAVHAQLPMDVLQHQFSVQTKISAPQQLHELVRSHLPGLELQRLPVPPRQIPYSAGYVYFELMKSGPFWDKVSNAGAIALHVAGDFPALKMELWGIRDS
MGSDKIHHHHHHMRTRDMLPILETLDESGIYSLEVWGGATFDACHRFLNENPWERLREIRKRVKNAKLQMLLRGQNLVGYRHYPDDIVEKFVQKTIENGLDVFRIFDALNDVRNLISSIKAAKKYNADHIQGTICYTISPVHTVEKYVEIANELAALEVDSICLKDMAGMLSPKMAYELVKALKKEVGLPINVHSHYTSGMASMALLKGVEAGAEMIDTCMSPLSSGTSHPPTESMVYALNELGYDTGVKLDILLEAREYFMKIREKYSGYLNPLSTIPDTRVLVYQIPGGMFSNLIAQLQEQNALDRLQEVLEEVPRVREDLGYPPLVTPTSQIVGVQAVINVLVGERYKVVTRETKDLVKGMYGRTPAPIKPEIVKKILGDEKPIDCRPADLLEPEFEKRKQELIEAGIENPSDEDVLLYALFPQTGLKFLKGEMVEEPFPVAGGKIEGSFEVEIDGQKYVVKVAPEK
MGSDKIHHHHHHMRVFVARQPIFNRKEQVVAYELLYRESEENVYSAKDGDQATTDLVINSFLNIGIEKLTEGKRCFVNFTESLMFSNLPTSFNPKQLVIEILEDIPITPALISRCKELKKMGYMLALDDFYAINPQDEDLLEKLMSYIDILKIDFLKTTRMERRTILQTYGCRGLIFLAEKVETRKEYKQAVQDGFQLFQGYFFSEPRIISGHDLSTHFYSYYELLNELSKEQPNIKRVTEYIERDLSLSYQILKFLNSSHSRLSQKIESIQQAIMLLGFNEIKRWIYILSFKDLSRKGHSSKHEIIKISLIRAKLCELLARKTSRPQPASYMLIGMFSLIDTLLHREIEEIVQELPLKDEVGQALLGHQNDYYQMLELVKLIESNNWDTCSELGNQLDKEEAYECYLEALEWCHNLMDAK
MGSDKIHHHHHHMRVGLTLYGSLDEQSGGFRYDRKLVEGLRAAGDTVECIQLPWRDYHRGLLDNGSRKLRQRLDVDVDVMLQDELAHPSLVRTNRALSYPIVSIVHHLRASEPRRLAPLYRAVERRYLGTVQAVVCNSATTRNVVTNLGVDPEDTVVAPPAGDQFDPDIDRATIERRATTEPLQVVFVGNVSPRKGLDTLVDGVAAAAVDIDLTVVGRHVDAAHVTSVQERVREHDLADRVQFAGRLPDGELAKTLRSSHVLAVPSRYEGFGIVYLEGMSFGLPALATRAGGAADIVTDDETGVLVDPDDSAAVARELERFATDRDRLAEMGWAARRNYETHPDWEETVGRVRDLLSDIVQPTEVPA
MGSDKIHHHHHHMRVKYPSIPHLPWSPGLQNDDRRITSLSGFIGKEVVVTEKLDGENTSLYRDDLHARSLDMRPHPSRTWVKAERGRVAHDIPLGWRFCGENVYAVHSLKYDDLDGYFYLFSVWDDLNVSRPWDEVRGWAERLSLPTPRELYRGPWDEAALQALDPDPERMEGYVVRVTAAIPYADFGRKVAKWVRRGHVQTDQHWLSQPVEPNGLKRQEQS
MGSDKIHHHHHHMSADKYEVIIIGAGLAGLSAAYKLAKAGMEVVVVERGDYPGSKNLSGGVLYSRILDQLIPDFWEEAPIERYITNYLTTLMTPTDYVNIEYKDQELAKPPYNAVTVLRAKFDRWLAEKAEEAGAMIVTGVKVDKVLKEGGRITGITTGDEEMLADVVIAADGINSFIAQEAGLRGEIEPAHLAVGAKALIELPQQAIEERFRLEGNEGTAYAMLGDATHGVAGGGFFYTNRESLSIGVVMRLDDLVKEKVKPFEVLDDLLRHPLVAPLVKDGTMTEYGAHLTAEGGVHMVPSQLHTDGMLIVGDAAGFTINSGLVIRGMDLAIGSGMAAAEAVLEAKERGDYSAAALSSYQRKLDEGFIMKDLKLYAKAVDFMETDRLYKNYAPLANHLFGRIYNHDLSPKEHLWKSVLGSVQESGISWLDLARDGIKGVRAL
MGSDKIHHHHHHMSAGLTGIRVAVIGGDDREIYMIPELQKLGAYIVGVGFEKAAPIQGVTLLSSPLEAVEKADVLLFPMYGTDERGDVKAKYSETPIVLNKELLKAVSPKVPLFIGWARPALKSAAEMLGIQIVETANLDQLAILNSIPSAEGAIQMAMEASPITIHGSESFVLGLGRCGWTLARTLKGMGAHVTGVARKPADLARALEMGLEAVHFADLDEKIGKAELIFNTVPHLILDKVMLEQVNHEAVIIDIASLPGGTDFEYAKAKGIKAMLAPGLPGKVAPKAAGKILAQVYPQLILRHLTTKNASLKF
MGSDKIHHHHHHMSAKQYDTLNNAEITSLAHRALACYPAALQGEVRLLCRSENATFLVTSAGKRYALRLHRSHYHQKAEIESELLWLDALRETGIVVPEAVRDASGERVQSLGLSDGSCRYAVLFHWIDGEMPTTSIDPRTFQQLGEITAHLHQHSRQWQKPDGFQRIVWDHHTMVSAQSHWGSWRDAPNLSRDEHGIVEEAIERMGTEMAEFGKAPHRYGLIHADLRLTNLLLHRGETRVIDFDDCGMGWYLHDLAAAISFVEHHPRAAEWVENWLCGYERVAHVSDEELALLPTLLIQRRIQLTAWVGSHAETEMAQSLGPDWASHSVRLCRRYLETRDLPLGVA
MGSDKIHHHHHHMSAPQAMKVLVLCGPESSGKSWLSGVIQAHFGGLVVGEYVRHFIDQQCRDTCYADIPAIARGQLAWEDRAREQAPPLLILDTHLLSNMLWSHALFGDCPTWLEEALLARRYDLHLLLSPQGVDWIADGQRCQPDLSDRQRFFDDSQAWLRRHNQPHQILDGNWPQRQLLALQSVAKLLNSDAPSCPTEC
